Consider two molecules from patent publication US20210348144 (published 2021).

Data set [1] concerns the target T1, LbCas12a S1020E (Lachnospiraceae bacterium ND2006). As to the kind of experiment: cell_activity; WT 15.77; 50 nM RNP, HEK293, T7EI 48 h; PAM of site not stated.
Data set [2] deals with T2, LbCas12a P799V (Lachnospiraceae bacterium ND2006). The description is as above.
For data set [3], the target named is T3, LbCas12a E795Q (Lachnospiraceae bacterium ND2006). The data set is described as above.
Data set [4] addresses T4, LbCas12a G146R (Lachnospiraceae bacterium ND2006). The data set is described as above.
In data set [5] the target is T5, LbCas12a G146R/R182V/E795Q (RVQ) (Lachnospiraceae bacterium ND2006). The description is as above.
For data set [6], the target named is T6, LbCas12a W890A (Lachnospiraceae bacterium ND2006). The data set is described as above.
Data set [7] has as its target T7, LbCas12a R182V (Lachnospiraceae bacterium ND2006). The description is as above.
Data set [8] addresses T8, LbCas12a K1121D (Lachnospiraceae bacterium ND2006). The data set is described as above.
The target of data set [9] is T9, LbCas12a T152K (Lachnospiraceae bacterium ND2006). The description is as above.
Data set [10] concerns the target T10, LbCas12a E981V (Lachnospiraceae bacterium ND2006). The description is as above.
For data set [11], the target named is T1, LbCas12a S1020E. Description: cell_activity; WT 7.70; 50 nM RNP, HEK293, T7EI 48 h; PAM of site not stated.
Data set [12] addresses T2, LbCas12a P799V. Described as above.
In data set [13] the target is T3, LbCas12a E795Q. The data set is described as above.
The target in data set [14] is T4, LbCas12a G146R. The data set is described as above.
Data set [15] deals with T5, LbCas12a G146R/R182V/E795Q (RVQ). The data set is described as above.
Data set [16] concerns the target T6, LbCas12a W890A. The description is as above.
Data set [17] addresses T7, LbCas12a R182V. The description is as above.
In data set [18] the target is T8, LbCas12a K1121D. The description is as above.
Data set [19] concerns the target T9, LbCas12a T152K. The description is as above.
Data set [20] has as its target T10, LbCas12a E981V. Described as above.

B1: crRNA-4 HPRT 38486-S-23 ; HPRT 38486-S protospacer (DNA equivalent of crRNA-4 spacer) (ssRNA ; dsDNA)
RNA: UAAUUUCUACUAAGUGUAGAUUUGUAGGAUAUGCCCUUGACUAU
DNA 1: TTGTAGGATATGCCCTTGACTAT
DNA 2: ATAGTCAAGGGCATATCCTACAA
B1: the activity with LbCas12a S1020E [1] is 7.6 % editing; in the data set with LbCas12a P799V [2], 30.7 % editing; with LbCas12a E795Q [3] it was 26.8 % editing; in the data set with LbCas12a G146R [4], 32.2 % editing; in data set [5], 51.5 % editing; with LbCas12a W890A [6] it was 4.27 % editing. The activity with LbCas12a R182V [7] came out at 29.1 % editing; with LbCas12a K1121D [8] it was 6.87 % editing; in the data set with LbCas12a T152K [9], 18.6 % editing; with LbCas12a E981V [10] it was 26.4 % editing.

B2: crRNA-2 HPRT 38094-S-23 ; HPRT 38094-S protospacer (DNA equivalent of crRNA-2 spacer) (ssRNA ; dsDNA)
RNA: UAAUUUCUACUAAGUGUAGAUAUAGUCUUUCCUUGGGUGUGUUA
DNA 1: ATAGTCTTTCCTTGGGTGTGTTA
DNA 2: TAACACACCCAAGGAAAGACTAT
For B2, the activity was 4.27 % editing with LbCas12a S1020E [11]; 16.7 % editing in the data set with LbCas12a P799V [12]; 9.77 % editing in the data set with LbCas12a E795Q [13]; 16.2 % editing with LbCas12a G146R [14]; 32.8 % editing in data set [15]; 3.8 % editing in the data set with LbCas12a W890A [16]. Also, the activity amounted to 10.4 % editing with LbCas12a R182V [17], 3.65 % editing with LbCas12a K1121D [18], 20.9 % editing with LbCas12a T152K [19] and 13.8 % editing with LbCas12a E981V [20].
